This is an account of results in patent publication US20240327509A1, “HUMAN CXCLI6 ANTIBODIES AND THE USE THEREOF” (CELLUS,INC., priority 2021, published 2024).

Sequences and labels used below:
T1: Recombinant human CXCL16 (rhCXCL16) protein (human, UniProt Q9H2A7 30-118, limits assumed)
T1 construct: Bought recombinant protein (976-CX, R&D systems); also called CXCL16 antigen; 976-CX (R&D systems)
T1 sequence: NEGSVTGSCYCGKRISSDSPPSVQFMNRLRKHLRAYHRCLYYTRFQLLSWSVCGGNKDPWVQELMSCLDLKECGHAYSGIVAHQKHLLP

B1: HC5LC1 (antibody, human IgG1, kappa, V domains shown)
VH: EVQLVESGGGLVQPGGSLKLSCAASGFTFSNAVMNWVRQASGKGLEWVARIRTKPNNYATFYADSVKGRFTFSRDDSKNTAYLQMNSLKTEDTAMYYCTAWTTEGIYWGQGTLVTVSS
VL: DIVMTQSPDSLAVSAGETVTINCKSSQSLLYSGNQKNYLAWYQQKPGQSPKLLIYWASTRQSGVPDRFSGSGSGTDFTLTISSVQAEDVAVYYCQQYYDTPWTFGGGTKVEIKR
notes: Humanized; human IgG1 / kappa constant domains; also called HCSLC1; humanized CXCL16 antibody HC5LC1
B2: HC5LC3 (antibody, human IgG1, kappa, V domains shown)
VH: B1 VH
VL: DIQMTQSPSSLSASVGDRVTITCKSSQSLLYSGNQKNYLAWYQQKPGQSPKLLIYWASTRQSGVPDRFSGSGSGTDFTLTISSLQAEDFATYYCQQYYDTPWTFGGGTKVEIKR
notes: Humanized; human IgG1 / kappa constant domains; also called HCSLC3; humanized CXCL16 antibody HC5LC3
B3: HC4LC1 (antibody, human IgG1, kappa, V domains shown)
VH: B1 VH with Q13K, K19R, S41P, A81L, M95V, L113T
VL: B1 VL
notes: Humanized; human IgG1 / kappa constant domains; also called humanized CXCL16 antibody HC4LC1
B4: HC3LC3 (antibody, human IgG1, kappa, V domains shown)
VH: B1 VH with S41P, A49G, S87I, L113T
VL: B2 VL
notes: Humanized variant; human IgG1 / kappa constant domains
B5: HC2LC3 (antibody, human IgG1, kappa, V domains shown)
VH: B1 VH with E1A, L20I, A49G, F72I
VL: B2 VL
notes: as for B4
B6: HC2LC4 (antibody, human IgG1, kappa, V domains shown)
VH: B1 VH with E1A, L20I, A49G, F72I
VL: B2 VL with D66S, A86P, F89L, T91I, V110L, I112L
notes: as for B4
B7: HC3LC4 (antibody, human IgG1, kappa, V domains shown)
VH: B1 VH with S41P, A49G, S87I, L113T
VL: B2 VL with D66S, A86P, F89L, T91I, V110L, I112L
notes: as for B4
B8: HC1LC5 (antibody, human IgG1, kappa, V domains shown)
VH: QVQLVESGGGVVQPGGSLRLSCAASGFTFSNAVMNWVRQAPGKGLEWVARIRTKPNNYATFYADSVKGRFTFSRDNSKTMLYLQMNSLRAEDTAVYYCTAWTTEGIYWGQGTLVTVSS
VL: B1 VL with D9S, T18R, V19A, S69I, V84L, V91I, V110L, I112L
notes: as for B4
B9: HC1LC1 (antibody, human IgG1, kappa, V domains shown)
VH: B8 VH
VL: B1 VL
notes: as for B4
B10: HC2LC2 (antibody, human IgG1, kappa, V domains shown)
VH: B1 VH with E1A, L20I, A49G, F72I
VL: B1 VL with D9S, A15L, V19A, S49P, S69T, S73A, V89L, V91I
notes: as for B4
B11: HC1LC2 (antibody, human IgG1, kappa, V domains shown)
VH: B8 VH
VL: B1 VL with D9S, A15L, V19A, S49P, S69T, S73A, V89L, V91I
notes: as for B4
B12: HC4LC3 (antibody, human IgG1, kappa, V domains shown)
VH: B1 VH with Q13K, K19R, S41P, A81L, M95V, L113T
VL: B2 VL
notes: as for B4
B13: HC4LC4 (antibody, human IgG1, kappa, V domains shown)
VH: B1 VH with Q13K, K19R, S41P, A81L, M95V, L113T
VL: B2 VL with D66S, A86P, F89L, T91I, V110L, I112L
notes: as for B4
B14: HC1LC3 (antibody, human IgG1, kappa, V domains shown)
VH: B8 VH
VL: B2 VL
notes: as for B4
B15: HC1LC4 (antibody, human IgG1, kappa, V domains shown)
VH: B8 VH
VL: B2 VL with D66S, A86P, F89L, T91I, V110L, I112L
notes: as for B4
B16: HC4LC2 (antibody, human IgG1, kappa, V domains shown)
VH: B1 VH with Q13K, K19R, S41P, A81L, M95V, L113T
VL: B1 VL with D9S, A15L, V19A, S49P, S69T, S73A, V89L, V91I
notes: as for B4
B17: HC3LC2 (antibody, human IgG1, kappa, V domains shown)
VH: B1 VH with S41P, A49G, S87I, L113T
VL: B1 VL with D9S, A15L, V19A, S49P, S69T, S73A, V89L, V91I
notes: as for B4
B18: HC3LC1 (antibody, human IgG1, kappa, V domains shown)
VH: B1 VH with S41P, A49G, S87I, L113T
VL: B1 VL
notes: as for B4
B19: HC5LC4 (antibody, human IgG1, kappa, V domains shown)
VH: B1 VH
VL: B2 VL with D66S, A86P, F89L, T91I, V110L, I112L
notes: as for B4
B20: HC2LC1 (antibody, human IgG1, kappa, V domains shown)
VH: B1 VH with E1A, L20I, A49G, F72I
VL: B1 VL
notes: as for B4
B21: HC3LC5 (antibody, human IgG1, kappa, V domains shown)
VH: B1 VH with S41P, A49G, S87I, L113T
VL: B1 VL with D9S, T18R, V19A, S69I, V84L, V91I, V110L, I112L
notes: as for B4
B22: HC2LC5 (antibody, human IgG1, kappa, V domains shown)
VH: B1 VH with E1A, L20I, A49G, F72I
VL: B1 VL with D9S, T18R, V19A, S69I, V84L, V91I, V110L, I112L
notes: as for B4
B23: HC4LC5 (antibody, human IgG1, kappa, V domains shown)
VH: B1 VH with Q13K, K19R, S41P, A81L, M95V, L113T
VL: B1 VL with D9S, T18R, V19A, S69I, V84L, V91I, V110L, I112L
notes: as for B4

Residue numbers refer to the chain shown, from its start.

In one test the target is T1, Recombinant human CXCL16 (rhCXCL16) …. The test is described as follows: BLI (ForteBio), antibody captured on biosensor, rhCXCL16 in solution, 25 C. Here is the method: (§1) The binding characteristics of 25 CXCL16 antibodies were analyzed using the bio-light interferometry (ForteBio). All antibodies were diluted in freshly prepared running buffer. Antibodies were immobilized onto the surface of a series of biosensors using the capture methods at 0.3 μg/mL. Recombinant human CXCL16 (rhCXCL16) protein (100 nM) was passed over the surface to generate a binding response for 10 minutes. Binding data for the antibody and antigen interactions were collected at 25° C. on the biosensors. Then, the running buffer was passed for 10 minutes to dissociate them. The association constant (kₐ) and the dissociation constant (kₐ) were observed, and the equilibrium binding constant (KD) was calculated. […] R2: The value indicating how well the fit and experimental data correlate; X²: The measure of error between the experimental data and fitted line.
In general terms: In BLI a coated tip is dipped into the sample, and binding shifts an interference pattern.
Take B1: the Kd is 3.26 nM, the koff was 5.97e-05 s⁻¹ and the kon worked out at 18300 M⁻¹ s⁻¹.
For B2, the Kd worked out at 1.44 nM and the koff amounted to 0.000635 s⁻¹.
For B3, the Kd was 1.09 nM, the koff came out at 1.9e-05 s⁻¹ and the association rate constant (kon) is 17400 M⁻¹ s⁻¹.

The target is the same in another test. The test is described as follows: BLI (ForteBio), antibody captured on biosensor, rhCXCL16 in solution. The protocol: as §1
Turning to B4, the binding result is given as “no binding (tested: 100 nM rhCXCL16)”.
In the case of B5, the binding result is “no binding (tested: 100 nM rhCXCL16)”.
Take B6: the binding result is “no binding (tested: 100 nM rhCXCL16)”.
Regarding B7, the binding result is given as “no binding (tested: 100 nM rhCXCL16)”.
Take B8: the binding result is given as “no binding (tested: 100 nM rhCXCL16)”.
Still for that read-out and setting: with B9 the entry was “no binding (tested: 100 nM rhCXCL16)”.
As to B10, the binding result is given as “no binding (tested: 100 nM rhCXCL16)”.
In the case of B11, the binding result was “no binding (tested: 100 nM rhCXCL16)”.
Still for that read-out and setting: with B12 the entry was “no binding (tested: 100 nM rhCXCL16)”; with B13, “no binding (tested: 100 nM rhCXCL16)”; with B14, “no binding (tested: 100 nM rhCXCL16)”.
As to B15, the binding result is on record as “no binding (tested: 100 nM rhCXCL16)”.
For the molecule B16, the binding result was “no binding (tested: 100 nM rhCXCL16)”.
Take B17: the binding result is on record as “no binding (tested: 100 nM rhCXCL16)”.
B18: the binding result is “no binding (tested: 100 nM rhCXCL16)”.
With B19, the binding result is on record as “no binding (tested: 100 nM rhCXCL16)”.
Take B20: the binding result was “no binding (tested: 100 nM rhCXCL16)”.
Still for that read-out and setting: with B21 the entry was “no binding (tested: 100 nM rhCXCL16)”; with B22, “no binding (tested: 100 nM rhCXCL16)”; with B23, “no binding (tested: 100 nM rhCXCL16)”.

The target is the same in another test. Kind of test: BLI (ForteBio), antibody captured on biosensor, rhCXCL16 in solution, 25 C. The source holds these as a separate data set.
B1: the “Res@3.7 nM” value was 0.08.
Same read-out and setting: with B2 the figure was 0.078; with B3, 0.113.

For orientation: Kd means the constant that tells how readily two partners part at equilibrium. In general, koff refers to the first-order rate constant of dissociation. As a reminder, the kon is the second-order rate constant of association.
